The text below walks through data of article PMC3766608, “Thermal Stability of Glucokinases in Thermoanaerobacter tengcongensis” (BioMed Research International, 2013).

In general, Km refers to the substrate concentration at which the rate is half of its maximum.

What all share (type): biochemical, Caldanaerobacter subterraneus
Substrate in data set [1]: Nc1ncnc2c1ncn2[C@@H]1O[C@H](COP(=O)(O)OP(=O)(O)OP(=O)(O)O)[C@@H](O)[C@H]1O
Kind of data set: purified protein. The conditions noted are these: glucose as co-substrate, Mg2+, Tris-HCl pH 8.0, 75 °C.

Substrate in the data set “coupled enzyme assay”: Nc1ncnc2c1ncn2[C@@H]1O[C@H](COP(=O)(O)OP(=O)(O)OP(=O)(O)O)[C@@H](O)[C@H]1O
Kind of data set: coupled enzyme assay. The conditions noted are these: Mg2+, Tris-HCl, sugar co-substrate not stated for this constant (pH optimum 7.5, T opt 70 °C). From the text:
coupled enzyme assay on TTE2418 (glu/man-NacK)

Substrate in data set [2]: Nc1ncnc2c1ncn2[C@@H]1O[C@H](COP(=O)(O)OP(=O)(O)O)[C@@H](O)[C@H]1O
The experiment in a line: purified protein. To be noted: glucose as co-substrate, Mg2+, Tris-HCl (pH optimum 8.0, T opt 80 °C).

B1: TTE0090 (ATP-GLK) (Caldanaerobacter subterraneus subsp. tengcongensis MB4) (protein)
chain: MKKFLCGVDLGGTKISTGIVDENGNIIKSIKIPTMAEKGPDVVIERIEESIYQVLKDTGLEMSNLKGIGIGSPGPLNAKKGIVISPPNLPHWSNVPIVEILSKRLGIEVRLENDANAAAIGEHLFGSGRGVDNFVYITVSTGIGGGVIIEGKLYSGENSNAAEIGHHTINFDGPRCNCGNYGCFEAYASGTAIARFAREGIEKGIKTKIKELAGEGEVKAEHVFEAAKLGDEFAKELVEKEAFYLGVGIANIMAFYNPRKIAIGGGVSAQWDMLYEKMMETVRKKALKPNAEVCEVVKAQLGENIGVLGAAALLL
notes: recombinant, His-tagged
For B1, in the data set “purified protein [1]”, the Km came out at 2600 µM and the Vmax was 100/ND.

B2: TTE2418 (glu/man-NacK) (Caldanaerobacter subterraneus subsp. tengcongensis MB4) (protein)
chain: MKVIGVDIGGTKILGGLIDERGNLLEETLVYTKAHLGREKILENLFIAIDKLIDKDVKGIGIGSAGRINFKEGIVEYATDNLPGWTGCNLKQLLEDRYKIPVIADNDVNAAVIGEIWQGAGRGYKDIVMIAIGTGVGGAIVYNGEVIRGGSWSAGEIGHMILYPKGRQCNCGQRGCLEQYVSGTAIARTYSEVSKEKKIAGAEEVFLLAEKGDKMALEIVNDFVNSLSIAILSLKNLLDPEIFIIGGGVIGAKRVWWDKLKKTLENRASITPAQLENKATMVGAAKLIIDYLSKNN
notes: recombinant
As for B2, in “coupled enzyme assay”, the Km stood at 1900 µM and the Vmax is 51/ND.

B3: TTE1961 (ADP-GLK) (Caldanaerobacter subterraneus subsp. tengcongensis MB4) (protein)
chain: MRIGVDLGGTNIAVGLVEEDGKIIATGSRPTKPERGYEAIARDIAELSFELLQRMGISVKDVKSMGIGVPGVADNEKGIVIRAVNLFWTKVPLAKEIRKYIDLPIYMENDANVAALAEATFGAGRGSKSSVTITLGTGVGSGFILDGKIYSGAHHFAPEIGHMVIGDNGIRCNCGKIGCFETYASATALIREGKKAAKRNPNTLILKFANGDIEGITAKNVIDAAKQYDEEALKIFEEYVKYLAVGIVNIINLFDPEVIILGGGVANAGDFLLKPLKKEVAENILFKELPYADIRKAELGNDAGIIGAAILS
notes: recombinant, His-tagged
With B3, the Km in “purified protein [2]” turned out to be 900 µM.
